Article PMC5797019 (2017)

Molecular target: vp22-RelA302-316 peptide (herpes virus | , UniProt Q04206 302-316)
Test: SPR

B1: His-SETD6 (enzyme)
chain: MATQAKRPRVAGPVDGGDLDPVACFLSWCRRVGLELSPKVSERAGGRRTRGGARAALTSPPAQVAVSRQGTVAGYGMVARESVQAGELLFVVPRAALLSQHTCSIGGLLERERVALQSQSGWVPLLLALLHELQAPASRWRPYFALWPELGRLEHPMFWPEEERRCLLQGTGVPEAVEKDLANIRSEYQSIVLPFMEAHPDLFSLRVRSLELYHQLVALVMAYSFQEPLEEEEDEKEPNSPVMVPAADILNHLANHNANLEYSANCLRMVATQPIPKGHEIFNTYGQMANWQLIHMYGFVEPYPDNTDDTADIQMVTVREAALQGTKTEAERHLVYERWDFLCKLEMVGEEGAFVIGREEVLTEEELTTTLKVLCMPAEEFRELKDQDGGGDDKREEGSLTITNIPKLKASWRQLLQNSVLLTLQTYATDLKTDQGLLSNKEVYAKLSWREQQALQVRYGQKMILHQLLELTS
B1 showed a Kd of 1100 nM.
